Assay results as given in publication PMC12648313, “Enhancing the Efficacy, Utility, and Throughput of the Transcription Block Survival Peptide Library Screening Platform” (JACS Au, 2025).
Each block holds one molecule with its values, some of them ahead of it.

Legend:
FAM-H-Box DNA = test: FP DNA binding, DLX5; conditions: pH 7.4
Experimental: (§1) removed before peptide concentration determination.
(§2) Peptide samples were suspended in 20
(§3) Post-melt scans at 20°C confirmed the
(§4) Sequential 2 µL injections of ATF2W (50 µM)
(§5) Data from a control experiment whereby […]
(§6) errors are given as one standard deviation.
(§7) Fluorescence polarisation: Fluorescence polarisation was measured in a CLARIOstar […]
(§8) chloride, 5 mM MgCl2, 10 mM TCEP, pH 7.4 buffer. Palindromic FAM-CRE DNA oligo was […]
(§9) purchased from Merck: 5’[6FAM]- GCGCTGACGTCAGCGC. 200 µM of the oligo was […]
(§10) prepared in water and then annealed by heating to 95°C for 10 minutes before cooling slowly to room temperature to give a 100 µM duplex stock. Samples containing 10 nM FAM-CRE and a serial dilution of ATF2 (12 nM-10 µM) were prepared and incubated at room temperature for 1 hour before transferring to the assay plate for measurement. Data were fit to a one site binding model. For antagonism experiments, the ATF2 concentration required for 80% response was selected. Samples containing 10 nM FAM-TRE, 625 nM ATF2 and a serial dilution of ATF2W (29 nM-12 µM) were prepared and incubated at room temperature for 2 hours before transferring to the assay plate for measurement. CREB1/CRE, cJun/TRE and DLX5/H-box DNA antagonism were determined by the equivalent experiments, using the FAM-CRE oligo above; FAM-TRE DNA oligoes: 5’-[6FAM]-TCTCTGACTCAGAGA, 5’- […]

[1] = test system: 9xDLX (H-box) mDHFR reporter; test: TBS growth assay: transcription block by DLX5 HD / FL; type: cell-based, E. coli BL21-Gold; conditions: 8 μM TMP; for colony formation on target expression (transcription block): strains 9 (HD) and 10 (FL) vs 8, 9xDLX mDHFR, M9 agar, 0.8 or 0.2 mM IPTG, 30 or 37 °C, three independent experiments
Excerpt: To highlight the platforms versatility for TFs with distinct DNA recognition motifs, we next constructed a 9xhomeobox (H-Box) system to identify inhibitors of homeodomain-containing TFs, including the DLX (Figure C), pre-B cell leukemia transcription factor (PBX) and orthodenticle homeobox protein (OTX) families. As with the CRE-based design, nine H-box consensus sequences were inserted into the 5′-promoter/UTR region of the mDHFR reporter gene (Figure S4).
(§11) 3 Introduction of H-box DNA sites into the 5′-promoter/UTR region of a mDHFR plasmid enables transcription block by both DLX5 full length and homeodomain. Equal numbers of cells from the control strains (Table ) were plated on selective M9 agar (0 or 8 μM TMP, 0.8 or 0.2 mM IPTG) and incubated (30 or 37 °C) before imaging. Bar charts show % plate coverage for three independent experiments with error bars shown as one standard deviation. Select p values from a t test are indicated (*p ≤ 0.05; **p ≤ 0.01; ns = not significant).
(§12) Enhancing the efficacy, utility and throughput of the Transcription Block Survival peptide library screening platform
(§13) Andrew Brennan1,2, T M Simon Tang1 and Jody M Mason1,2
(§14) 1Department of Life Sciences, University of Bath, Bath BA2 7AY, United Kingdom 2Address correspondence to JMM or AB (j.mason@bath.ac.uk; ab3107@bath.ac.uk) […]
Plasmid constructs: Target cognate binding sequence-containing inserts were produced using PCR fill-in reactions from synthesised primers (Merck). They were then subcloned using XhoI and SphI sites into the pQE16-derivative pES300d WT mDHFR plasmid (Figure S1, S2, S3). […]
(§15) pressure respectively. Three independent growth experiments were conducted for each strain/condition with the percentage of the plate covered by bacterial colonies determined using ImageJ 1.54G. Images were converted to 8-bit, threshold values were set to identify coverage, and the resulting black and white image was measured for percentage coverage in a defined circle excluding the plate edge. Percentage coverage was utilised to quantify both bacterial survival and growth rate.

E. coli = test: TBS growth without TMP (cellular toxicity of expression); type: cell-based, E. coli BL21-Gold; conditions: strain 10, 0 μM TMP, 0.8 mM IPTG
Experimental: as §11, §12, §13, §14, §15

FAM-labeled CRE DNA = test: FP DNA binding, ATF2; conditions: ATF2 12 nM-10 μM, 10 nM FAM-CRE DNA; 20 mM potassium phosphate, 50 mM NaCl, 5 mM MgCl2, 10 mM TCEP, pH 7.4; 1 h, room temperature; one site model
[2] = test system: CREB1 bZIP-CRE DNA (CRE mDHFR reporter); test: TBS growth assay: transcription block relief / peptide antagonism in E. coli (CREB1/CRE); type: cell-based, E. coli BL21-Gold; conditions: M9 agar, 8 μM TMP, 1 mM IPTG, three independent experiments
Excerpt: To validate the new TBS constructs, six BL21-Gold E. coli control strains were generated. Empty plasmids (lacking gene of interest) were used to control for replication and antibiotic stresses (Table ): Control strains 1 and 4 contained mDHFR gene reporter plasmids for 5xCRE and 9xCRE respectively, and two empty plasmids; control strains 2 and 5 contained reporter plasmid, target plasmid encoding the CREB1 basic-leucine zipper (bZIP) domain and one empty plasmid; control strains 3 and 6 contained reporter plasmid, target plasmid and the antagonist plasmid encoding A-CREB (peptide inhibitor of CREB1 comprising a rationally designed acidic extension appended to the N-terminus of the CREB1 LZ).
2 Introduction of CRE DNA sites into the 5′-promoter/UTR region of a mDHFR plasmid facilitates effective transcription block. […]
as §15

FAM-CRE DNA = test: FP DNA binding, CREB1; conditions: pH 7.4
Experimental: as §1, §2, §3, §4, §5, §6, §7, §8, §9, §10

cJun bZIP [3] = target: cJun bZIP (UniProt P05412); test: fluorescence polarization; conditions: FP: chloride salt (buffer and salt concentration truncated in material), 5 mM MgCl2, 10 mM TCEP, pH 7.4; 10 nM FAM-DNA; 1 h incubation, temperature not in …
cJun bZIP [4] = target: cJun bZIP (UniProt P05412); test: competition (FP); conditions: antagonist peptide ATF2W; FP: chloride salt (buffer and salt concentration truncated in material), 5 mM MgCl2, 10 mM TCEP, pH 7.4; 10 nM FAM-DNA; 1 h incubation, temperature not in …
ATF2 bZIP [5] = target: T1, ATF2 bZIP (human, UniProt P15336 352-410); test: competition (FP); antagonist: non-selected library member control peptide; FP: chloride salt (buffer and salt concentration truncated in material), 5 mM MgCl2, 10 mM TCEP, pH 7.4; 10 nM FAM-DNA; 1 h incubation, temperature not in material; conditions: chain copies: 2; label: 5' 6-FAM; blunt; self-complementary, 2 copies
T1 sequence: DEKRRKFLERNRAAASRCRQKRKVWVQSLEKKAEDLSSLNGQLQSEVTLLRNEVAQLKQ

ATF2 bZIP [6] = target: T1, ATF2 bZIP; test: fluorescence polarization; 10 nM DNA, ATF2 12 nM-10 uM; FP: chloride salt (buffer and salt concentration truncated in material), 5 mM MgCl2, 10 mM TCEP, pH 7.4; 10 nM FAM-DNA; 1 h incubation, temperature not in material; conditions: chain copies: 2; label: 5' 6-FAM; blunt; self-complementary, 2 copies
CREB1 bZIP [7] = target: T2, CREB1 bZIP (UniProt P16220 269-327); test: competition (FP); antagonist peptide ATF2W; FP: chloride salt (buffer and salt concentration truncated in material), 5 mM MgCl2, 10 mM TCEP, pH 7.4; 10 nM FAM-DNA; 1 h incubation, temperature not in material; conditions: chain copies: 2; label: 5' 6-FAM; blunt; self-complementary, 2 copies
T2 sequence: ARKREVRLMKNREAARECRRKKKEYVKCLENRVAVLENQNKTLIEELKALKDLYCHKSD

CREB1 bZIP [8] = target: T2, CREB1 bZIP; test: fluorescence polarization; FP: chloride salt (buffer and salt concentration truncated in material), 5 mM MgCl2, 10 mM TCEP, pH 7.4; 10 nM FAM-DNA; 1 h incubation, temperature not in material; conditions: chain copies: 2; label: 5' 6-FAM; blunt; self-complementary, 2 copies
ATF2 bZIP [9] = target: T1, ATF2 bZIP; test: competition (FP); antagonist peptide ATF2W 29 nM-12 uM, 625 nM ATF2; FP: chloride salt (buffer and salt concentration truncated in material), 5 mM MgCl2, 10 mM TCEP, pH 7.4; 10 nM FAM-DNA; 1 h incubation, temperature not in material; conditions: chain copies: 2; label: 5' 6-FAM; blunt; self-complementary, 2 copies
FAM-TRE DNA = test: FP DNA binding, cJun; conditions: pH 7.4
Experimental: as §1, §2, §3, §4, §5, §6, §7, §8, §9, §10

DLX5 HD = DLX5 HD (UniProt P56178 138-198); test: fluorescence polarization; FP: chloride salt (buffer and salt concentration truncated in material), 5 mM MgCl2, 10 mM TCEP, pH 7.4; 10 nM FAM-DNA; 1 h incubation, temperature not in material; conditions: label: 5' 6-FAM; blunt; self-complementary, 2 copies
Chain of DLX5 HD (P56178 138-198): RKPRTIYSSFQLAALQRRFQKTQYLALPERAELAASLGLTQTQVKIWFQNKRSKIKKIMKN

Molecule: DLX5: DLX5 HD spans from Val137 to Asn198
Kd (FAM-H-Box DNA): 383 ± 19 nM | colony formation on target expression (transcription block) [1]: less pronounced than in the corresponding CRE system

Molecule: DLX5 FL: full-length DLX5
growth inhibition on target expression, comparison FL vs HD ([1]; strain 10 vs 9, optimized conditions: 0.2 mM IPTG or 30 °C): produced a robust transcriptional block and more effectively suppressed E. coli growth than DLX5 HD | colony formation on target expression (transcription block) [1]: introduced a transcriptional block, resulting in reduced colony formation | growth in absence of TMP (cellular toxicity) (E. coli): reduced growth was also observed in the absence of TMP

Kd (FAM-labeled CRE DNA): 277 ± 19 nM
Molecule: ATF2: human ATF2 bZIP domain spans from Asp352 to Gln410

Molecule: LEQQLEELAQENEELEKEAEELEQELAELENRVAVLENQNKTLIEELKALKDLYCHKSD [A-CREB, reference compound]
bacterial growth restoration (relief of transcriptional block) ([2]; strains 3 and 6 (5xCRE and 9xCRE mDHFR) expressing CREB1 bZIP and A-CREB, % plate coverage): Growth was restored

Molecule: CREB1: CREB1 bZIP domain spans from Ala283 to Asp341 (ARKREVRLMKNREAARECRRKKKEYVKCLENRVAVLENQNKTLIEELKALKDLYCHKSD)
bacterial growth on target expression (transcription block) ([2]; strains 2 and 5 (5xCRE and 9xCRE mDHFR)): markedly reduced growth | Kd (FAM-CRE DNA): 156 ± 26 nM

Molecule: TCTCTGACTCAGAGA (double strand) [FAM-TRE]
Kd (cJun bZIP [3]): 330 nM | IC50 (cJun bZIP [4]): 1850 nM

B1: FAM-CRE (dsDNA)
DNA 1: GCGCTGACGTCAGCGC
DNA 2: GCGCTGACGTCAGCGC
IC50 (ATF2 bZIP [5]): 3690 ± 110 nM | Kd (ATF2 bZIP [6]): 277 ± 19 nM | IC50 (CREB1 bZIP [7]): 2360 ± 59 nM | Kd (CREB1 bZIP [8]): 156 ± 26 nM | IC50 (ATF2 bZIP [9]): 667 ± 71 nM

Kd (FAM-TRE DNA): 330 ± 42 nM
B2: cJun: purified cJun bZIP (protein)
chain: RIKAERKRMRNRIAASKCRKRKLERIARLEEKVKTLKAQNSELASTANMLREQVAQLKQKVMNH

B3: FAM-H-Box (dsDNA)
DNA 1: TCTCTAATTAGAGA
DNA 2: TCTCTAATTAGAGA
Kd (DLX5 HD): 383 ± 19 nM
